Earlier results on three substances are cited in US20230365625A1, “METHODS FOR TREATING AND/OR PREVENTING UNDESIRABLE SEQULAE OF NASAL TURBINOPLASTY OR FUNCTIONAL ENDOSCOPIC SINUS SURGERY” (3-D Matrix, Ltd., priority 2022, published 2023).

The conditions of series [1]: 1% in water; cited from earlier work.
The subject of series [2] is punch hole injuries to the liver. The following applies: pig, in vivo; cited from earlier work.
For series [3] the following is noted: cited from earlier work.
For series [4] the following is noted: cited from earlier work. This is another data set of the same source.
For series [5] the following is noted: RADA16 2.5%, IEIK13 1.3%, QLEL12 0.15% in water; result in words; cited from earlier work.
The mark [6] stands for this setting: in solution before DMEM, RADA16 assumed 2.5% wt/vol, IEIK13 concentration unknown.

Entries after “also recorded” stand apart in the source; their conditions may differ. Where two headings read alike, the source gives them in different places.

With Ac-IEIKIEIKIEIKI-NH2 [IEIK13], in series [1], the “Increase in storage modulus G′ after DMEM treatment relative to before” value was 7.4 fold and the “Storage modulus after DMEM treatment” value was 5314 Pa. For the same substance, in series [2], the “Inflammatory cell infiltration due to the gel in the wound” value was “absence if inflammatory cell infiltration”. Also, the “Storage modulus G′” value in series [3] (1% in water) was roughly 700 Pa. The “Gel stiffness compared to RADA16” value in series [4] (exposed to physiological conditions, result in words) is recorded as “forms a stiffer gel; also recorded: form a stiffer hydrogel matrix”. Also, in series [4] (setting [6]), the “Median loss modulus G″” value was 116 Pa and the “Median storage modulus G′” value is 1145 Pa. In addition, the “Effect of gamma-irradiation sterilization” value in series [5] is listed as “enhanced the rheological properties”.
On to “Ac-QLELQLELQLEL-NH2 [QLEL12, self-assembling peptide]”, for which, in series [5], the “Effect of gamma-irradiation sterilization” value was “significant degradation and viscosity drop”.
As for KLDKLDKLDKLD [KLD12], the “Increase in storage modulus G′ after DMEM treatment relative to before” value in series [1] is on record as 23.9 fold. Besides, the entries for the “Storage modulus G′” value in series [3] (1.5% in water) and in series [3] (2.5% in water) were “about 350 Pa” and roughly 700 Pa, respectively.
